Source: PMC8642297

Columns and labels:
[1] = target: GluA2 (modified calcium-permeable rat GluA2flip subunit with Q586 at the Q/R-site, GluA2*) (rat); assay: cryo-EM structure
[2] = target: GluA2 (modified calcium-permeable rat GluA2flip subunit with Q586 at the Q/R-site, GluA2*) (rat); assay: cryo-EM structure; remark: listed apart in the source

stoichiometry N [1]	stoichiometry N (γ5 per GluA2 tetramer) [2]	Molecule
4	–	GluA2 (modified calcium-permeable rat GluA2flip subunit with Q586 at the Q/R-site, GluA2*) (receptor)
–	2	type II TARP γ5 (C-terminally truncated mouse subunit, Cacng5, residues Ser2-Glu207) (domain or fragment) SACGRKALTLLSSVFAVCGLGLLGIAVSTDYWLYLEEGIILPQNQSTEVKMSLHSGLWRVCFLAGEERGRCFTIEYVMPMNSQMTSESTVNVLKMIRSATPFPLVSLFFMFIGFILSNIGHIRPHRTILAFVSGIFFILSGLSLVVGLVLYISSINDEMLNRTKDAETYFNYKYGWSFAFAAISFLLTESAGVMSVYLFMKRYTAE
